Data: publication PMC7824211

Biological target: recombinant HA Victoria (B/Brisbane/60/2008) fused to an HIS-Tag (influenza B virus B/Brisbane/60/2008 (Victoria lineage))
Assay: SPR

NKp46-Ig (extracellular portion of human NKp46 fused to the Fc portion of human IgG1) (from UniProt O76036 22-258) (Fc fusion)
fold lower affinity than to the HA of IAV: 7 fold
